Experimental data taken from the supplement of paper PMC9233669.
Variants at the floor of the assay were thinned out.

Key:
biotinyl-Trp-oxazolone = test: self-aminoacylation, catalytic enhancement (BWO) (fold over background); higher = more active; k-Seq, kA / k0A0; sequences stand for … in GGGAAUGGAUCCACAUCUACGAAUUC…UUCACUGCAGACUUGACGAAGCUG
Procedure, shortened: (§1)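 The uncatalyzed rate is the low-activity peak of a bimodal Gaussian fit, and catalytic enhancement is median kA divided by it. The kA values came from pseudo-first-order fits, with 1000 bootstraps, of per-sequence fraction reacted measured by streptavidin capture, triplicate qPCR and Illumina sequencing. Mutagenized RNA pools with a 21-nt variable region (0.43 μM) were reacted with each biotinyl-aminoacyl-oxazolone at 2–1250 μM in 50 μL HEPES/NaCl/KCl/MgCl2/CaCl2 buffer with 5% acetonitrile, pH 6.9–7.0, for 90 minutes at room temperature.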

biotinyl-Met-oxazolone = test: self-aminoacylation, catalytic enhancement (BMO) (fold over background); higher = more active; k-Seq, kA / k0A0; sequences stand for … in GGGAAUGGAUCCACAUCUACGAAUUC…UUCACUGCAGACUUGACGAAGCUG
Procedure, shortened: as §1

biotinyl-Ile-oxazolone = test: self-aminoacylation, catalytic enhancement (BIO) (fold over background); higher = more active; k-Seq, kA / k0A0; sequences stand for … in GGGAAUGGAUCCACAUCUACGAAUUC…UUCACUGCAGACUUGACGAAGCUG
Procedure, shortened: as §1

biotinyl-Phe-oxazolone = test: self-aminoacylation, catalytic enhancement (BFO) (fold over background); higher = more active; k-Seq, kA / k0A0; sequences stand for … in GGGAAUGGAUCCACAUCUACGAAUUC…UUCACUGCAGACUUGACGAAGCUG
Procedure, shortened: as §1

biotinyl-Val-oxazolone = test: self-aminoacylation, catalytic enhancement (BVO) (fold over background); higher = more active; k-Seq, kA / k0A0; sequences stand for … in GGGAAUGGAUCCACAUCUACGAAUUC…UUCACUGCAGACUUGACGAAGCUG
Procedure, shortened: as §1

biotinyl-Leu-oxazolone = test: self-aminoacylation, catalytic enhancement (BLO) (fold over background); higher = more active; k-Seq, kA / k0A0; sequences stand for … in GGGAAUGGAUCCACAUCUACGAAUUC…UUCACUGCAGACUUGACGAAGCUG
Procedure, shortened: as §1

AUUACCCUGGACAUCCAGUGA [Fam2.1 aminoacylation ribozyme variant]
self-aminoacylation (biotinyl-Trp-oxazolone): 4.13
self-aminoacylation (biotinyl-Met-oxazolone): 3.32
self-aminoacylation (biotinyl-Ile-oxazolone): 2.61
self-aminoacylation (biotinyl-Phe-oxazolone): 15.9
self-aminoacylation (biotinyl-Val-oxazolone): 2.51
self-aminoacylation (biotinyl-Leu-oxazolone): 3.82

AUUCCCCUGGUCAUAGAGUGA [Fam2.1 aminoacylation ribozyme variant]
self-aminoacylation (biotinyl-Trp-oxazolone): 13.1
self-aminoacylation (biotinyl-Met-oxazolone): 10
self-aminoacylation (biotinyl-Ile-oxazolone): 5.4
self-aminoacylation (biotinyl-Phe-oxazolone): 70.9
self-aminoacylation (biotinyl-Val-oxazolone): 5.89
self-aminoacylation (biotinyl-Leu-oxazolone): 10.1

AUUCCCCUGGUCAUCUAGUGA [Fam2.1 aminoacylation ribozyme variant]
self-aminoacylation (biotinyl-Trp-oxazolone): 13
self-aminoacylation (biotinyl-Met-oxazolone): 11.9
self-aminoacylation (biotinyl-Ile-oxazolone): 5.92
self-aminoacylation (biotinyl-Phe-oxazolone): 85.5
self-aminoacylation (biotinyl-Val-oxazolone): 6.23
self-aminoacylation (biotinyl-Leu-oxazolone): 11.4

AUACACCUAGGUGAUCGGGUG [Fam2.2 aminoacylation ribozyme variant]
self-aminoacylation (biotinyl-Trp-oxazolone): 4.59
self-aminoacylation (biotinyl-Met-oxazolone): 3.56
self-aminoacylation (biotinyl-Ile-oxazolone): 3.87
self-aminoacylation (biotinyl-Phe-oxazolone): 16.4
self-aminoacylation (biotinyl-Val-oxazolone): 2.6
self-aminoacylation (biotinyl-Leu-oxazolone): 3.88

AUUACCCUGGUCAUCUAGAGA [Fam2.1 aminoacylation ribozyme variant]
self-aminoacylation (biotinyl-Trp-oxazolone): 0.6
self-aminoacylation (biotinyl-Met-oxazolone): 0.865
self-aminoacylation (biotinyl-Ile-oxazolone): 1.04
self-aminoacylation (biotinyl-Phe-oxazolone): 0.684
self-aminoacylation (biotinyl-Val-oxazolone): 1.03
self-aminoacylation (biotinyl-Leu-oxazolone): 0.887

AUUCUCCUAGGUCACCGGGUG [Fam2.2 aminoacylation ribozyme variant]
self-aminoacylation (biotinyl-Trp-oxazolone): 7.7
self-aminoacylation (biotinyl-Met-oxazolone): 7.25
self-aminoacylation (biotinyl-Ile-oxazolone): 5.47
self-aminoacylation (biotinyl-Phe-oxazolone): 39.8
self-aminoacylation (biotinyl-Val-oxazolone): 5.85
self-aminoacylation (biotinyl-Leu-oxazolone): 10.2

CCACACUUCAAGCGAUCGGAC [Fam1B.1 aminoacylation ribozyme variant]
self-aminoacylation (biotinyl-Trp-oxazolone): 1.36
self-aminoacylation (biotinyl-Met-oxazolone): 1.33
self-aminoacylation (biotinyl-Ile-oxazolone): 1.22
self-aminoacylation (biotinyl-Phe-oxazolone): 0.588
self-aminoacylation (biotinyl-Val-oxazolone): 1.27
self-aminoacylation (biotinyl-Leu-oxazolone): 1.26

AUUCACCUGGAUCAUCGGGUG [Fam2.2 aminoacylation ribozyme variant]
self-aminoacylation (biotinyl-Trp-oxazolone): 3.31
self-aminoacylation (biotinyl-Met-oxazolone): 2.39
self-aminoacylation (biotinyl-Ile-oxazolone): 2.55
self-aminoacylation (biotinyl-Phe-oxazolone): 15.1
self-aminoacylation (biotinyl-Val-oxazolone): 3.08
self-aminoacylation (biotinyl-Leu-oxazolone): 3.12

AUUAACCUAGGUCACCGGGUG [Fam2.2 aminoacylation ribozyme variant]
self-aminoacylation (biotinyl-Trp-oxazolone): 5.15
self-aminoacylation (biotinyl-Met-oxazolone): 4.09
self-aminoacylation (biotinyl-Ile-oxazolone): 3.19
self-aminoacylation (biotinyl-Phe-oxazolone): 23.6
self-aminoacylation (biotinyl-Val-oxazolone): 3.13
self-aminoacylation (biotinyl-Leu-oxazolone): 4.52

AUUCAGCUAGGUCGUCGGGUG [Fam2.2 aminoacylation ribozyme variant]
self-aminoacylation (biotinyl-Trp-oxazolone): 3.08
self-aminoacylation (biotinyl-Met-oxazolone): 3.24
self-aminoacylation (biotinyl-Ile-oxazolone): 2.53
self-aminoacylation (biotinyl-Phe-oxazolone): 13.1
self-aminoacylation (biotinyl-Val-oxazolone): 2.62
self-aminoacylation (biotinyl-Leu-oxazolone): 3.24

AAGUUUGCUAACAAUCGCAAG [Fam3.1 aminoacylation ribozyme variant]
self-aminoacylation (biotinyl-Trp-oxazolone): 0.717
self-aminoacylation (biotinyl-Met-oxazolone): 0.63
self-aminoacylation (biotinyl-Ile-oxazolone): 0.619
self-aminoacylation (biotinyl-Phe-oxazolone): 1.03
self-aminoacylation (biotinyl-Val-oxazolone): 0.599
self-aminoacylation (biotinyl-Leu-oxazolone): 0.591

CUUCACCUAGGUCACCGGGUG [Fam2.2 aminoacylation ribozyme variant]
self-aminoacylation (biotinyl-Trp-oxazolone): 5.51
self-aminoacylation (biotinyl-Met-oxazolone): 3.54
self-aminoacylation (biotinyl-Ile-oxazolone): 2.92
self-aminoacylation (biotinyl-Phe-oxazolone): 21.9
self-aminoacylation (biotinyl-Val-oxazolone): 3.81
self-aminoacylation (biotinyl-Leu-oxazolone): 5.4

CUACUUCAAACAAUCGGCCUG [Fam1A.1 aminoacylation ribozyme variant]
self-aminoacylation (biotinyl-Trp-oxazolone): 48.1
self-aminoacylation (biotinyl-Met-oxazolone): 1.87
self-aminoacylation (biotinyl-Ile-oxazolone): 1.69
self-aminoacylation (biotinyl-Phe-oxazolone): 85.3
self-aminoacylation (biotinyl-Val-oxazolone): 1.78
self-aminoacylation (biotinyl-Leu-oxazolone): 2.86
